Experimental data taken from US8022177B2, “Peptides and calcium regulation in mammalian cells” (The Board of Trustees of the University of Illinois, priority 2005, dated 2011).

B1: γ6S: rat calcium channel γ6 subunit, short isoform (AF361344), SEQ ID NO:49 (protein, listed as Rattus norvegicus)
chain: MMWSNFFMQEEDRRRTAVGRRRAQEQQNLGLTPEREGKIKLGLLVAIVGATLAVLAVGTEFWVELNTYKTNGSAVCEAAHLGLWKVCIKRLWQADVPAGRETCGPAELPGEANCTYFKFFTTGENAHIFQRTTKKGLLLFVSLEVFRHSVRALLQGVNPETPPAPRLAYEYSWSLGCGVGAGLILLLGGVCFLLLTLPSWPWRSLCPKRGGPTA
B2: γ1 T12G: γ1 single mutant containing just part of the GXXXA motif (protein, UniProt Q06432 1-222, looked up, variant T12G)
Voltage-dependent calcium …: MSQTKMLKVRVGLFCILAGIVLAMTAVVTDHWAVLSPHMEHHNTTCEAAHFGLWRICTKRIPMDDSKTCGPITLPGEKNCSYFRHFNPGESSEIFEFTTQKEYSISAAAIAIFSLGFIILGSLCVLLSLGKKRDYLLRPASMFYAFAGLCILVSVEVMRQSVKRMIDSEDTVWIEYYYSWSFACACAAFILLFLGGLALLLFSLPRMPRNPWESCMDAEPEH
B3: γ1 (T12G, I16A): γ1 double mutant containing the complete GXXXA motif in TM1 (protein, UniProt Q06432 1-222, looked up, variant T12G I16A)
Voltage-dependent calcium …: MSQTKMLKVRVGLFCALAGIVLAMTAVVTDHWAVLSPHMEHHNTTCEAAHFGLWRICTKRIPMDDSKTCGPITLPGEKNCSYFRHFNPGESSEIFEFTTQKEYSISAAAIAIFSLGFIILGSLCVLLSLGKKRDYLLRPASMFYAFAGLCILVSVEVMRQSVKRMIDSEDTVWIEYYYSWSFACACAAFILLFLGGLALLLFSLPRMPRNPWESCMDAEPEH

Assays:
Format in all cases: cell-based
[1] = target: T1, Cav3.1 (Homo sapiens, UniProt O43497); assay: Whole-cell patch clamp of Cav3.1 dependent LVA calcium current in HEK-293/Cav3.1 cells transiently transfected with γ subunits (Example 1)
T1 construct: expressed in transfected cells; host or cells: HEK-293, stably transfected
Experimental: 2.3. Transfection. Untransfected HEK-293 cells, HEK-293 cell lines stably transfected with Cav3.1, and HL-1 cells were transiently transfected with vectors containing γ subunit, GFP, and modified CFP cDNAs using Lipofectamine 2000 reagent (InVitrogen) as per the manufacturer's recommendations. HEK-293 cells were grown to 70-80% confluence before transfection. HL-1 cells were grown to 50-75% confluence before transfection.
2.4. Electrophysiology. Whole-cell calcium currents were recorded using an Axopatch-1 D patch clamp system and Clampex 8.0 software. Pipettes were fabricated from borosilicate glass and had typical resistances of 2-4 MΩ. The pipette solution contained (in mM): 130 NaCl, 10 EGTA, 2 MgCl2, 1 CaCl2, 10 HEPES, 3 Tris-ATP, and either 0.3 Li2GTP or 0.3 Tris-GTP, adjusted to pH 7.4 with NaOH and 280 mOsm with sucrose. The bath solution contained (in mM): 137 NaCl (for HEK-293 experiments) or 120 TEACl (for HL-1 experiments), 1 KCl, 1 MgCl2, 0.33 NaH2PO4, 2 CaCl2 (for HEK-293 experiments) or 5 CaCl2 (for HL-1 experiments), 10 glucose (for HL-1 experiments only), 10 HEPES, and 30 μM TTX (for HEK-293 experiments only), adjusted to pH 7.4 with NaOH (for HEK-293 experiments) or TEAOH (for HL-1 experiments) and 280 mOsm with sucrose. NaCl was used as the major salt in the pipette solution order to eliminate any outward K+ currents.
Recordings from HEK-293 cells were made 48-96 h posttransfection, at which time expression, as measured by GFP fluorescence, peaked. HL-1 cells were used for recording 24-36 h post-transfection. Current densities in HEK-293/Cav3.1 cell experiments were normalized to control for variation in current expression in the different frozen stocks of stable cell lines used. […] HL-1 experiments were performed using a single stock of cells. All HEK-293 data are from current records in which pipette and whole-cell capacitance were about 100% compensated and series resistance was compensated to >80%. Whole-cell capacitance and series resistance were not compensated for HL-1 recordings as currents were typically <100 pA. Series resistance values were typically <10 MX, and no records were used in which the voltage error (as defined by Ver=Imax×Ra) was greater than 5 mV. The holding potential of all protocols used for HEK-293 cells was −100 mV except for steady-state inactivation protocols where the holding potential was −120 mV. The holding potential for protocols used for HL-1 cells was −90 mV. Current-voltage relationships for all HEK-293 and HL-1 cells were measured using 50 ms test depolarizations. Peak current amplitudes for activation curves were determined by fitting tail currents, elicited by stepping membrane voltage from varying test potentials to −60 mV, with the Boltzman equation. Test potential steps for activation protocols were of varied durations, corresponding to the time to peak of the elicited current. Inactivation curves were determined by fitting peak amplitudes of currents, observed in a test pulse to −20 mV, following 500 ms steps to varying potentials, with the Boltzman equation. Time to peak was determined using the current-voltage protocol described above. Inactivation time constants were determined by fitting the decay phase of currents to an exponential equation and deactivation time constants were determined by fitting the decay phase of tail currents to an exponential equation. […] Currents were recorded at 40 kHz and on-line filtered at either 5 or 10 kHz. In some cases currents were off-line filtered at 1 kHz to further reduce noise. Current/voltage relationships and tail currents were recorded from HEK cells using an on-line P/−4 subtraction procedure. Calcium currents recorded from HL-1 cells were off-line leak subtracted. The average membrane capacitance of untransfected HEK-293 cells in pilot experiments was 12.5±1.4 pF (n=8). […]

[2] = target: T1, Cav3.1; assay: Whole-cell patch clamp of Cav3.1 LVA current in HEK/Cav3.1 cells transfected with γ6/γ4 chimeric and truncated constructs (Example 2); settings: Table 1 (Example 2)
Experimental: Transfection—HEK-293 cell lines stably transfected with Cav3.1 were transiently transfected with vectors containing γ subunit cDNAs using Lipofectamine 2000 reagent (Invitrogen) as per the manufacturer's recommendations. HEK-293 cells were grown to 70-80% confluence before transfection.
Electrophysiology—Whole-cell calcium currents were recorded using an Axopatch-1D patch clamp system and Clampex 8.0 software. Pipettes were fabricated from borosilicate glass and had typical resistances of 2-4 MΩ. The pipette solution contained (in mM): 130 NaCl, 10 EGTA, 2 MgCl2, 1 CaCl2, 10 HEPES, 3 Tris-ATP, and 0.3 Tris-GTP, adjusted to pH 7.4 with NaOH and 280 mOsm with sucrose. The bath solution contained (in mM): 137 NaCl, 1 KCl, 1 MgCl2, 0.33 NaH2PO4, 2 CaCl2, 10 HEPES, and 30 μM TTX, adjusted to pH 7.4 with NaOH and 280 mOsm with sucrose.
Recordings from HEK-293 cells were made 48-96 hours post-transfection, at which time expression, as measured by GFP fluorescence, peaked. All HEK-293 data is from current records in which pipette and whole-cell capacitance were about 100% compensated and series resistance was compensated to >80%. Series resistance values were typically <10 MΩ (megaohms), and no records were used in which the voltage error (as defined by Ver=Imax×Ra) was greater than 5 mV. The holding potential of all protocols used for HEK-293 cells was −100 mV except for steady-state inactivation protocols where the holding potential was −120 mV. Current-voltage relationships for all HEK-293 cells were measured using 50 ms test depolarizations. Peak current amplitudes for activation curves were determined by fitting tail currents, elicited by stepping membrane voltage from varying test potentials to −60 mV, with the Boltzman equation. Test potential steps for activation protocols were of varied durations, corresponding to the time to peak of the elicited current. Inactivation curves were determined by fitting peak amplitudes of currents, observed in a test pulse to −20 mV, following 500 ms steps to varying potentials, with the Boltzman equation. Time to peak was determined using the current-voltage protocol described above. Inactivation time constants were determined by fitting the decay phase of currents to an exponential equation and deactivation time constants were determined by fitting the decay phase of tail currents to an exponential equation. […] When a double exponential equation was used to fit Cav3.1 tail currents, the magnitude of the fast component was about 10 fold that of the slow component. Currents were recorded at 40 kHz and on-line filtered at 5. In some cases currents were off-line filtered at 1 kHz to further reduce noise. Current-voltage relationships and tail currents were recorded from HEK cells using an on-line P/−4 subtraction procedure. The average membrane capacitance of untransfected HEK-293 cells in pilot experiments was 12.5+/−0.4 pF (n=8).
Statistical Analysis—All data are reported as mean±SEM and tested for significance by one-way ANOVA. A value of P<0.05 was considered significant and when significant p-values were encountered groups were compared using the Tukey post-hoc test.

[3] = target: T1, Cav3.1; assay: Whole-cell patch clamp of Cav3.1 current in Cav3.1/HEK cells transfected with chimeras, truncations and point mutants (Example 6); settings: FIG. 38, FIG. 41
Experimental: Transfection. HEK-293 cells stably transfected with either Cav3.1 or Cav3.2 were transiently transfected, at 50% confluency, with a bicistronic vector encoding both GFP and γ subunit cDNA's using Lipofectamine 2000 reagent (Invitrogen, Carlsbad, Calif.) as per the manufacturer's recommendations. Cells were visualized using an Nikon inverted microscope with an FITC filter.
Electrophysiology. Whole cell Ca^2+ currents were recorded using an Axon Instruments Axopatch-1D amplifier and Clampex 8.0 software. Pipettes were made from boroscillicate glass and had typical resistances of 2-4 Mohms. The pipette solution contained (in mM) 130 NaCl, 10 EGTA, 2 or 5 MgCl2, 1 CaCl2, 10 HEPES, 3 Tris-ATP, and 0.3 Li2GTP. Two different bath solutions were used. The first, used for experiments with γ subunit chimeras, contained (in mM) 130 NaCl, 1 MgCl2, 2 CaCl2, 10 glucose, 10 HEPES, and 0.03 TTX. The second, used for experiments with γ subunit containg point mutations, contained (in mM) 137 NaCl, 1 KCl, 1 MgCl2, 0.33 NaH2PO4, 2 CaCl2, 10 HEPES. All solutions were adjusted to pH 7.4 with NaOH and 280 mOsm with sucrose. No Cl^− currents were evident in any HEK-293 cells line, stably transfected or not, and no attempt was made to eliminate Cl^− currents from data records.
All electrophysiological data are from current records in which voltage offset was adjusted, pipette capacitance and whole cell capacitance were compensated and series resistance was compensated to >80%. Currents were filtered at 10 kHz and recorded at 40 kHz. In some cases, current records were off-line filtered at 1K. Current voltage relationships were recorded using an on-line P/−4 subtraction procedure to eliminate linear capacitative and leakage currents. Only recordings with less than 50 pA leakage current were used.
Several different protocols were used to determine the biophysical characteristics of currents in HEK-293 cells. The voltage dependence of activation was determined using “tail” currents. Cells were depolarized from a holding potential of −100 mV to test potentials ranging from −90 mV to +60 mV. Pulse durations varied and corresponded to the time to peak current measured at the corresponding test potentials. Following the conditioning pulse cells were re-polarized to −60 mV and the amplitude of the resulting “tail” current measured. The voltage dependence of inactivation was measured by depolarizing the cells to voltages ranging from −120 mV to 50 mV for 500 ms to inactivate the Ca^2+ channels. After this conditioning step the membrane was returned to the holding potential (−100 mV) for 3 ms and then depolarized a second time to +20 mV for 150 ms during which time the peak current was measured. Time constants for inactivation were measured by fitting a single exponential equation to the decay phase of currents elicited by voltage steps from −50 to +30 mV from a holding potential of −100 mV. Time constants for deactivation were measured by fitting either a single or a double exponential to the decay phase of tail currents.
To account for the inherent variation in calcium current density in the HEK-Cav3.1 stable cell line the averaged current density of each test group of cells was normalized to the mean current density of a control group of cells. A minimum of 5 cells (typically 7 to 10) from each group was used to calculate the mean current densities of test and control cells. At least two independent transfections were performed for each test condition. […]

T1 sequence (O43497 whole entry): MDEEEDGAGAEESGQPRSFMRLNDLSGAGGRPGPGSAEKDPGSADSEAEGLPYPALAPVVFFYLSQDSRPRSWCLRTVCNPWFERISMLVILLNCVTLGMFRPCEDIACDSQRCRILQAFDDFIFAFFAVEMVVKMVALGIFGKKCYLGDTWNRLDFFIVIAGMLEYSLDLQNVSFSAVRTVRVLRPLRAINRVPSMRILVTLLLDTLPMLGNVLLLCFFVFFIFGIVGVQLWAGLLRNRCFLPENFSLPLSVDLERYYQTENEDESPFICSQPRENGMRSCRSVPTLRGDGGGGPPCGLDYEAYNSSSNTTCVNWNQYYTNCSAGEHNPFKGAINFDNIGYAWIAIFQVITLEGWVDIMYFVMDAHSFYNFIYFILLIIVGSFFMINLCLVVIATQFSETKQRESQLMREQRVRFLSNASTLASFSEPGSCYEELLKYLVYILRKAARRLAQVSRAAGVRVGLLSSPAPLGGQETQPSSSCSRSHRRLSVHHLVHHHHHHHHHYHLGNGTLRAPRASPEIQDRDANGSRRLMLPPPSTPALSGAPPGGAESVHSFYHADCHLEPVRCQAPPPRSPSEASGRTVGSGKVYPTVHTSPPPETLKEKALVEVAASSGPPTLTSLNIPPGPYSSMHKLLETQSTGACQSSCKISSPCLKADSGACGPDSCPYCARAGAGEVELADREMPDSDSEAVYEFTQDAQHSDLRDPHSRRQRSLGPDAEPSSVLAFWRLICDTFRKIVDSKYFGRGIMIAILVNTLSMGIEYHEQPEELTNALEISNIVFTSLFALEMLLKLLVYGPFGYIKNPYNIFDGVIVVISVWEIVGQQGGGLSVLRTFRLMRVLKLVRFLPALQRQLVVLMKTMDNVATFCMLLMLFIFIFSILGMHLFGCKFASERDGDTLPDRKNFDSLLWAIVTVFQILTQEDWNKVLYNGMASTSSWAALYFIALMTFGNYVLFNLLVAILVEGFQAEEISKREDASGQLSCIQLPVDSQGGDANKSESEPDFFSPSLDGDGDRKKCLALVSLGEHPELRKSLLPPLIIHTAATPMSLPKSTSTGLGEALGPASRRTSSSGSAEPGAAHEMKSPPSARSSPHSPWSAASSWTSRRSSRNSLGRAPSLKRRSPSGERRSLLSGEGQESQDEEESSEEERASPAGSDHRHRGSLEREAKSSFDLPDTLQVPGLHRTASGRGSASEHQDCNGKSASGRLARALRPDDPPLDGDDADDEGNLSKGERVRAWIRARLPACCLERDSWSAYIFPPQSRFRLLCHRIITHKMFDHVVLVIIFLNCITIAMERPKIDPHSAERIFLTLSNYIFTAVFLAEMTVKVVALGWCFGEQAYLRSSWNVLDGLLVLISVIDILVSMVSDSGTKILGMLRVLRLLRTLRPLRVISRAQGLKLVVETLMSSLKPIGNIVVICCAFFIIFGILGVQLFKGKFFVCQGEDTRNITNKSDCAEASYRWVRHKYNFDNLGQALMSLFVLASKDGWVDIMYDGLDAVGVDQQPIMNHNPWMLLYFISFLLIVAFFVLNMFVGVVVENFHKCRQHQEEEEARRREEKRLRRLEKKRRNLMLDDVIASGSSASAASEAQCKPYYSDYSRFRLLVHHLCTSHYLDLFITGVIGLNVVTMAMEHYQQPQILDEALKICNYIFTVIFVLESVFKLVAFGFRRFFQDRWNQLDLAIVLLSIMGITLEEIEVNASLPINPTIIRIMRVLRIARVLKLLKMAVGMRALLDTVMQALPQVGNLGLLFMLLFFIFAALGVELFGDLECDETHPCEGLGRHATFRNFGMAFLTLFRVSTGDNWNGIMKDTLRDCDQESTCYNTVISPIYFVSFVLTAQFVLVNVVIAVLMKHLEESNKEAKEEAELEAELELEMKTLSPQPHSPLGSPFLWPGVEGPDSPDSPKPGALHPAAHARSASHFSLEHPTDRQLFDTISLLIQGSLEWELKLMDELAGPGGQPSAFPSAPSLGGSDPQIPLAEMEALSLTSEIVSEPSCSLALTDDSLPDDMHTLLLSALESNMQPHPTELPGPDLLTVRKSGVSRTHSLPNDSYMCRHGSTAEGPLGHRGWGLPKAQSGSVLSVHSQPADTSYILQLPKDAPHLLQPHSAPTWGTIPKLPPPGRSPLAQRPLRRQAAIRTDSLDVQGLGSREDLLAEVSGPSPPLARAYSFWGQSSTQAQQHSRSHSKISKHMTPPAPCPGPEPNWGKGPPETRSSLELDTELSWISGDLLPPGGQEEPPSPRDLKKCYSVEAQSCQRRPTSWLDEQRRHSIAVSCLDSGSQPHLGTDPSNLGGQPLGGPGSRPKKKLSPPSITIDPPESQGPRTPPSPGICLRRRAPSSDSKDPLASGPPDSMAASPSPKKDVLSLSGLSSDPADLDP

| Molecule | Effect on current kinetics or voltage dependency ([1]; HEK-293/Cav3.1) | Peak current density, % of control value ([1]; HEK-293/Cav3.1, normalized to adCGI vector control, mean±S.E.M.) | Activation V 0.5 ([1]; Table 2) | Activation k ([1]; Table 2) | Deactivation tau @ −100 mV, Fast ([1]; Table 2) | Inactivation Tau @ −20 mV ([1]; Table 2) | Inactivation V 0.5 ([1]; Table 2) | Inactivation k ([1]; Table 2) | Time to peak @ −20 mV ([1]; Table 2) | V peak ([1]; Table 2) | Decrease in Cav3.1 current density ([1]; co-expression with Cav3.1 in HEK-293 cells) | Activation V 0.5 [2] | Activation k [2] | Deactivation tau @ −100 mV, Fast [2] | Inactivation V 0.5 [2] | Inactivation k [2] | Inactivation tau @−20 mV [2] | Time to peak @ −20 mV [2] | V peak [2] | Effect on Cav3.1 calcium current density [3] |
| --- | --- | --- | --- | --- | --- | --- | --- | --- | --- | --- | --- | --- | --- | --- | --- | --- | --- | --- | --- | --- |
| B1 | did not alter current kinetics or voltage dependency | 31%±13% | −36.3 ± 6.2 (n = 4) mV | 12.7 ± 1.5 (n = 4) | 1.20 ± 0.06 (n = 3) ms | 22.9 ± 0.7 (n = 2) ms | −72.0 ± 5.9 (n = 3) mV | 5.9 ± 0.7 (n = 3) | 6.4 ± 0.5 (n = 3) ms | −27.0 ± 2.5 (n = 5) mV | 69% | −36.3 ± 6.2 (n = 4) mV | 12.7 ± 1.5 (n = 4) | 1.20 ± 0.06 (n = 3) ms | −72.0 ± 5.9 (n = 3) mV | 5.9 ± 0.7 (n = 3) | 22.9 ± 0.7 (n = 2) ms | 6.4 ± 0.5 (n = 3) ms | −27.0 ± 2.5 (n = 5) mV | – |
| B2 | – | – | – | – | – | – | – | – | – | – | – | – | – | – | – | – | – | – | – | no effect |
| B3 | – | – | – | – | – | – | – | – | – | – | – | – | – | – | – | – | – | – | – | significantly inhibited |
